# Data published in IntAct's records for PubMed 21224891.
# B1: X-linked retinitis pigmentosa GTPase regulator-interacting protein 1 (Homo sapiens), Q96KN7 (parent)
# chain: MSHLVDPTSGDLPVRDIDAIPLVLPASKGKNMKTQPPLSRMNREELEDSFFRLREDHMLVKELSWKQQDEIKRLRTTLLRLTAAGRDLRVAEEAAPLSETARRGQKAGWRQRLSMHQRPQMHRLQGHFHCVGPASPRRAQPRVQVGHRQLHTAGAPVPEKPKRGPRDRLSYTAPPSFKEHATNENRGEVASKPSELVSGSNSIISFSSVISMAKPIGLCMPNSAHIMASNTMQVEEPPKSPEKMWPKDENFEQRSSLECAQKAAELRASIKEKVELIRLKKLLHERNASLVMTKAQLTEVQEAYETLLQKNQGILSAAHEALLKQVNELRAELKEESKKAVSLKSQLEDVSILQMTLKEFQERVEDLEKERKLLNDNYDKLLESMLDSSDSSSQPHWSNELIAEQLQQQVSQLQDQLDAELEDKRKVLLELSREKAQNEDLKLEVTNILQKHKQEVELLQNAATISQPPDRQSEPATHPAVLQENTQIEPSEPKNQEEKKLSQVLNELQVSHAETTLELEKTRDMLILQRKINVCYQEELEAMMTKADNDNRDHKEKLERLTRLLDLKNNRIKQLEGILRSHDLPTSEQLKDVAYGTRPLSLCLETLPAHGDEDKVDISLLHQGENLFELHIHQAFLTSAALAQAGDTQPTTFCTYSFYDFETHCTPLSVGPQPLYDFTSQYVMETDSLFLHYLQEASARLDIHQAMASEHSTLAAGWICFDRVLETVEKVHGLATLIGAGGEEFGVLEYWMRLRFPIKPSLQACNKRKKAQVYLSTDVLGGRKAQEEEFRSESWEPQNELWIEITKCCGLRSRWLGTQPSPYAVYRFFTFSDHDTAIIPASNNPYFRDQARFPVLVTSDLDHYLRREALSIHVFDDEDLEPGSYLGRARVPLLPLAKNESIKGDFNLTDPAEKPNGSIQVQLDWKFPYIPPESFLKPEAQTKGKDTKDSSKISSEEEKASFPSQDQMASPEVPIEAGQYRSKRKPPHGGERKEKEHQVVSYSRRKHGKRIGVQGKNRMEYLSLNILNGNTPEQVNYTEWKFSETNSFIGDGFKNQHEEEEMTLSHSALKQKEPLHPVNDKESSEQGSEVSEAQTTDSDDVIVPPMSQKYPKADSEKMCIEIVSLAFYPEAEVMSDENIKQVYVEYKFYDLPLSETETPVSLRKPRAGEEIHFHFSKVIDLDPQEQQGRRRFLFDMLNGQDPDQGHLKFTVVSDPLDEEKKECEEVGYAYLQLWQILESGRDILEQELDIVSPEDLATPIGRLKVSLQAAAVLHAIYKEMTEDLFS
# partner: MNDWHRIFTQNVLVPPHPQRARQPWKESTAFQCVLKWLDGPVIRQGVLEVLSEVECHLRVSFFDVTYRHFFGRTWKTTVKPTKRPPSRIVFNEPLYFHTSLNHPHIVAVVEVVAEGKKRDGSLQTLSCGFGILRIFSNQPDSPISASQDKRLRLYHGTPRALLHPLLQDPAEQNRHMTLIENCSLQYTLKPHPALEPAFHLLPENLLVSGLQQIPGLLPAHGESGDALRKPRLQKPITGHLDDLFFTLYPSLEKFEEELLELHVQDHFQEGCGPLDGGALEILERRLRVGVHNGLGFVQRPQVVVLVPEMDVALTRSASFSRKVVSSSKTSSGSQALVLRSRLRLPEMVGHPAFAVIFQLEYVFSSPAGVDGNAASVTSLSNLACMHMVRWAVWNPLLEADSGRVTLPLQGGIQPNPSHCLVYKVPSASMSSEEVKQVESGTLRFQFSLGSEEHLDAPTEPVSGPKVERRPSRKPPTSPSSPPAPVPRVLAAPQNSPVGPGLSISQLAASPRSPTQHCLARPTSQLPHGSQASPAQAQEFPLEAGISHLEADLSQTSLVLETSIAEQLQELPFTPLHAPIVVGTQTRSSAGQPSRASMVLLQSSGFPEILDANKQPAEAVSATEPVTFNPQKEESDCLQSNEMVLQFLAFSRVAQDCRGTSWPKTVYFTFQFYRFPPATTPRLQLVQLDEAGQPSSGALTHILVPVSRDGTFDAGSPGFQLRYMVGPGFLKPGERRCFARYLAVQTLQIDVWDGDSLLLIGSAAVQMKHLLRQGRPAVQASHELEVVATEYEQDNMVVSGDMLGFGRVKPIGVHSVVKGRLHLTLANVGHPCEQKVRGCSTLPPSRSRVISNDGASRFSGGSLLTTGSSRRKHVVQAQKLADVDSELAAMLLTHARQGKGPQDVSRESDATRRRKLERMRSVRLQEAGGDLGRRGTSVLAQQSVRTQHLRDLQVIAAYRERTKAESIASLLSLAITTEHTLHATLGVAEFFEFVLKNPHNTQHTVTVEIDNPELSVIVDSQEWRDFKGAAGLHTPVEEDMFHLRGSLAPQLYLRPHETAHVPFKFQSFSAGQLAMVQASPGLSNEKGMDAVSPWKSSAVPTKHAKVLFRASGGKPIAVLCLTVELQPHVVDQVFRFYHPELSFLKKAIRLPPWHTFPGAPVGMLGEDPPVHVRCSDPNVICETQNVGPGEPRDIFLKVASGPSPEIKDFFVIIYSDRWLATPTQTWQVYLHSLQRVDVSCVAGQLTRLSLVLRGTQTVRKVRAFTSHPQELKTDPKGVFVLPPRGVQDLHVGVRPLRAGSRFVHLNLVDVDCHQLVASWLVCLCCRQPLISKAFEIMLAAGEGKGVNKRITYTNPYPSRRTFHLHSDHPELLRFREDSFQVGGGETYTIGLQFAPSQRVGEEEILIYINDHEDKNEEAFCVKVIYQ
# Variants of: B1
# Details: with nphp4_human NPHP4, O75161
row,Variant,effect of a mutation on the interaction
1,A635G,decreasing interaction strength
2,A764V,with no effect
3,A837G,decreasing interaction strength
4,R812H,increasing interaction strength
5,Q589H,with no effect
6,R598Q,decreasing interaction strength
7,I838V,decreasing interaction strength
8,T806I,decreasing interaction strength

# Variants of: B1
# Details: with nphp4_human NPHP4, O75161
# Remark: another data set of the same source
row,Variant,effect of a mutation on the interaction
1,R598Q,disrupting interaction strength
